Measurements as given in US20250186597A1 (BRIGHT PEAK THERAPEUTICS, published 2025).
Residue numbers refer to the chain shown, from its start. In names and notes the source's numbering stands. Several values for one entry are separate records, joined by “and”; a condition that tells them apart may be missing. Identical values can stand only once.

T1: IL-18R on HEK-Blue IL18R reporter cells (InvivoGen, #hkb-hmi118) (UniProt Q13478 19-541; O95256 20-599, limits assumed)
T1 sequence (looked up) 1: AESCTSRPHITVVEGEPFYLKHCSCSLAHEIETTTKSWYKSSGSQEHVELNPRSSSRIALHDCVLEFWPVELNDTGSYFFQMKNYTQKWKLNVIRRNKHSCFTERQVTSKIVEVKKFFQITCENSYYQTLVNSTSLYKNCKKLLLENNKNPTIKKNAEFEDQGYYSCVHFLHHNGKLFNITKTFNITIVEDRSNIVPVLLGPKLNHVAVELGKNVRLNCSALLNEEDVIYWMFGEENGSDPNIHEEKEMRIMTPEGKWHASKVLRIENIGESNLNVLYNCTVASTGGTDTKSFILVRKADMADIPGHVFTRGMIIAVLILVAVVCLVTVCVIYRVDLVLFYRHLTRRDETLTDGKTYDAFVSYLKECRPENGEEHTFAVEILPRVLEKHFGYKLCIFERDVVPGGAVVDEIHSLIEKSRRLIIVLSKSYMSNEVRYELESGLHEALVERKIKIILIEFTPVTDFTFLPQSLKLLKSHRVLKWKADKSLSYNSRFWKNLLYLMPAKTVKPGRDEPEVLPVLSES
T1 sequence (looked up) 2: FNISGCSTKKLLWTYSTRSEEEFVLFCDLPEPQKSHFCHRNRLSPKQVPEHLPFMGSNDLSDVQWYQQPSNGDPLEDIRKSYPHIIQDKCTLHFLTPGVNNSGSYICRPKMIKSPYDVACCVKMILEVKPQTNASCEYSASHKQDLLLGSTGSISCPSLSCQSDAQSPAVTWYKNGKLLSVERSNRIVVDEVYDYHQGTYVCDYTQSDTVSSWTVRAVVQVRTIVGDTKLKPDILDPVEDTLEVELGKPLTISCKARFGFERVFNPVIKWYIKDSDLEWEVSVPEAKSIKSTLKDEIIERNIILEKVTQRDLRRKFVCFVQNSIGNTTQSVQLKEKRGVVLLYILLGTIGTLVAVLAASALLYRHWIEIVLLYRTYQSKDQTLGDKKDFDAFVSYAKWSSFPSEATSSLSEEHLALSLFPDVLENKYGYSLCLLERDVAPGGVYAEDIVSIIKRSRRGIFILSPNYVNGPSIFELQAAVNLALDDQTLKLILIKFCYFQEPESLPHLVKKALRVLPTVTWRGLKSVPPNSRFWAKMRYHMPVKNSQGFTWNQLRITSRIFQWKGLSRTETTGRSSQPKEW

B1: IL-18 polypeptide of SEQ ID NO: 34 (E06K, K53A, S55A) (ligand)
chain: YFGKLKSKLSVIRNLNDQVLFIDQGNRPLFEDMTDSDCRDNAPRTIFIISMYADAQPRGMAVTISVKCEKISTLSCENKIISFKEMNPPDNIKDTKSDIIFFQRSVPGHDNKMQFESSSYEGYFLACEKERDLFKLILKKEDELGDRSIMFTVQNED
B2: IL-18 polypeptide C162 (K8E, V11I, C38A, C76A, Q103R, C127A) (ligand)
chain: B1 chain with K6E, K8E, V11I, C38A, A53K, A55S, C76A, Q103R, C127A
B3: IL-18 polypeptide of SEQ ID NO: 42 (E06K, K53A, S55A, T63A) (ligand)
chain: B1 chain with T63A
B4: IL-18 polypeptide of SEQ ID NO: 60 (E6K, C38Q, K53A) (ligand)
chain: B1 chain with C38Q, A55S
B5: IL-18 polypeptide C164 (V11I, C38A, S55H, C76A, C127A) (ligand)
chain: B1 chain with K6E, V11I, C38A, A53K, A55H, C76A, C127A
B6: IL-18 polypeptide C174 (K8L, E6K, V11I, C38A, K53A, T63A, C76A, C127A) (ligand)
chain: B1 chain with K8L, V11I, C38A, A55S, T63A, C76A, C127A
B7: IL-18 polypeptide C178 (E6K, V11I, C38A, K53A, T63A, C76A, Q103R, C127A) (ligand)
chain: B1 chain with V11I, C38A, A55S, T63A, C76A, Q103R, C127A
B8: IL-18 polypeptide C163 (V11I, C38A, C76A, Q103K, C127A) (ligand)
chain: B1 chain with K6E, V11I, C38A, A53K, A55S, C76A, Q103K, C127A
B9: IL-18 polypeptide C157 (V11I, C38A, K53A, C76A, C127A, D132A) (ligand)
chain: B1 chain with K6E, V11I, C38A, A55S, C76A, C127A, D132A
B10: IL-18 polypeptide C181 (E6K, V11I, C38A, K53A, T63A, C76A, C127A, V153E) (ligand)
chain: B1 chain with V11I, C38A, A55S, T63A, C76A, C127A, V153E
B11: IL-18 polypeptide of SEQ ID NO: 56 (E6K, K53A, C38S, C76S, C127S) (ligand)
chain: B1 chain with C38S, A55S, C76S, C127S
B12: IL-18 polypeptide C160 (V11I, C38A, K53A, C76A, D110A, C127A) (ligand)
chain: B1 chain with K6E, V11I, C38A, A55S, C76A, D110A, C127A
B13: IL-18 polypeptide C166 (V11I, C38A, S55T, C76A, C127A) (ligand)
chain: B1 chain with K6E, V11I, C38A, A53K, A55T, C76A, C127A
B14: IL-18 polypeptide C152 (V11I, S36A, C38A, K53A, C76A, C127A) (ligand)
chain: B1 chain with K6E, V11I, S36A, C38A, A55S, C76A, C127A
B15: IL-18 polypeptide C151 (V11I, D35A, C38A, K53A, C76A, C127A) (ligand)
chain: B1 chain with K6E, V11I, D35A, C38A, A55S, C76A, C127A
B16: IL-18 polypeptide C153 (V11I, D37A, C38A, K53A, C76A, C127A) (ligand)
chain: B1 chain with K6E, V11I, D37A, C38A, A55S, C76A, C127A
B17: IL-18 polypeptide C167 (V11I, C38A, C76A, S105I, C127A) (ligand)
chain: B1 chain with K6E, V11I, C38A, A53K, A55S, C76A, S105I, C127A
B18: IL-18 polypeptide C159 (V11I, C38A, K53A, C76A, H109A, C127A) (ligand)
chain: B1 chain with K6E, V11I, C38A, A55S, C76A, H109A, C127A
B19: IL-18 polypeptide C145 (V11I, C38A, K53A, S55A, C76A, C127A) (ligand)
chain: B1 chain with K6E, V11I, C38A, C76A, C127A
B20: IL-18 polypeptide C176 (E6K, V11I, C38A, I49M, K53A, T63A, C76A, C127A) (ligand)
chain: B1 chain with V11I, C38A, I49M, A55S, T63A, C76A, C127A
B21: IL-18 polypeptide C158 (V11I, C38A, K53A, C76A, G108A, C127A) (ligand)
chain: B1 chain with K6E, V11I, C38A, A55S, C76A, G108A, C127A
B22: IL-18 polypeptide C156 (V11I, C38A, N41A, K53A, C76A, C127A) (ligand)
chain: B1 chain with K6E, V11I, C38A, N41A, A55S, C76A, C127A
B23: IL-18 polypeptide C168 (V11I, C38A, C76A, S105K, C127A) (ligand)
chain: B1 chain with K6E, V11I, C38A, A53K, A55S, C76A, S105K, C127A
B24: IL-18 polypeptide of SEQ ID NO: 50 (E06K, K53A, T63A) (ligand)
chain: B1 chain with A55S, T63A
B25: IL-18 polypeptide of SEQ ID NO: 62 (E6K, C38A, K53A, C127A) (ligand)
chain: B1 chain with C38A, A55S, C127A
B26: IL-18 polypeptide C146 (SEQ ID NO: 68; V11I, C38A, M51G, K53A, C76A, C127A) (ligand)
chain: B1 chain with K6E, V11I, C38A, M51G, A55S, C76A, C127A
B27: IL-18 polypeptide C143 (V11I, C38A, K53A, C76A, C127A) (ligand)
chain: B1 chain with K6E, V11I, C38A, A55S, C76A, C127A
B28: IL-18 polypeptide C155 (V11I, C38A, D40A, K53A, C76A, C127A) (ligand)
chain: B1 chain with K6E, V11I, C38A, D40A, A55S, C76A, C127A
B29: IL-18 polypeptide C150 (V11I, T34A, C38A, K53A, C76A, C127A) (ligand)
chain: B1 chain with K6E, V11I, T34A, C38A, A55S, C76A, C127A
B30: IL-18 polypeptide C161 (K8R, V11I, C38A, C76A, Q103E, C127A) (ligand)
chain: B1 chain with K6E, K8R, V11I, C38A, A53K, A55S, C76A, Q103E, C127A
B31: IL-18 polypeptide C177 (E6K, V11I, C38A, I49R, K53A, T63A, C76A, C127A) (ligand)
chain: B1 chain with V11I, C38A, I49R, A55S, T63A, C76A, C127A
B32: IL-18 polypeptide C149 (V11I, E31A, C38A, K53A, C76A, C127A) (ligand)
chain: B1 chain with K6E, V11I, E31A, C38A, A55S, C76A, C127A
B33: IL-18 polypeptide C147 (V11I, C38A, K53A, D54A, C76A, C127A) (ligand)
chain: B1 chain with K6E, V11I, C38A, D54A, A55S, C76A, C127A
B34: IL-18 polypeptide of SEQ ID NO: 59 (E6K, C38A, K53A) (ligand)
chain: B1 chain with C38A, A55S
B35: IL-18 polypeptide of SEQ ID NO: 57 (E6K, C38S, K53A) (ligand)
chain: B1 chain with C38S, A55S
B36: IL-18 polypeptide C148 (F2A, V11I, C38A, K53A, C76A, C127A) (ligand)
chain: B1 chain with F2A, K6E, V11I, C38A, A55S, C76A, C127A
B37: IL-18 polypeptide C154 (V11I, E31A, D37A, C38A, K53A, C76A, C127A) (ligand)
chain: B1 chain with K6E, V11I, E31A, D37A, C38A, A55S, C76A, C127A
B38: IL-18 polypeptide C144 (V11I, C38A, K53A, T63A, C76A, C127A) (ligand)
chain: B1 chain with K6E, V11I, C38A, A55S, T63A, C76A, C127A
B39: IL-18 polypeptide C179 (E6K, K8E, V11I, C38A, K53A, T63A, C76A, Q103R, C127A) (ligand)
chain: B1 chain with K8E, V11I, C38A, A55S, T63A, C76A, Q103R, C127A
B40: IL-18 polypeptide of SEQ ID NO: 54 (E06K, K53A, C38S, C68S, C76S, C127S, K70C) (ligand)
chain: B1 chain with C38S, A55S, C68S, K70C, C76S, C127S
B41: IL-18 polypeptide C165 (V11I, C38A, S55R, C76A, C127A) (ligand)
chain: B1 chain with K6E, V11I, C38A, A53K, A55R, C76A, C127A

Each binder was assayed against T1, IL-18R on HEK-Blue IL18R reporter cells … (assay: cell-based or functional assay).

EC50, HEK-Blue IL18R reporter assay | Binder
272 pM | B1
2.3 pM | B2
0.79 pM | B3
0.203 pM | B4
3.14 pM | B5
0.29 pM | B6
0.26 pM | B7
1.5 pM | B8
1.95 pM | B9
0.1 pM | B10
3.73 pM | B11
2.02 pM | B12
4.73 pM | B13
0.25 pM | B14
13.1 pM | B15
14.1 pM | B16
5.37 pM | B17
19.5 pM | B18
3.63 pM | B19
0.07 pM | B20
15.6 pM | B21

EC50, HEK-Blue IL18R reporter assay | Binder
11.7 pM | B22
7.73 pM | B23
1.77 pM | B24
0.17 pM | B25
0.8 pM | B26
0.98 pM | B27
0.52 pM | B28
0.7 pM | B29
2.01 pM | B30
0.04 pM | B31
6.6 pM | B32
1 pM | B33
0.268 pM | B34
0.86 pM and 0.53 pM | B35
7.28 pM | B36
11.9 pM | B37
0.17 pM | B38
0.4 pM | B39
9.12 pM | B40
1.91 pM | B41
